According to patent publication US20040086503A1:
Blank lines part the entries; values can stand above or below the binder they belong to.

Experiments:
[1] = molecular target: extracellular domain of IGF-IR (human) (UniProt P08069); assay: SPR (BIAcore 3000), Protocol 2, essentially as Fagerstam et al.
[2] = molecular target: extracellular domain of IGF-IR (human) (UniProt P08069); assay: SPR (BIAcore 3000), Protocol 1: antibody captured on protein A, IGF-IR ECD injected

Kd [1]: 1.53 nM
Kd [2]: 3.5 nM
B1: anti-IGF-IR antibody 2.13.2 (antibody, V domains shown)
VH: EVQLLESGGGLVQPGGSLRLSCTASGFTFSSYAMNWVRQAPGKGLEWVSAISGSGGTTFYADSVKGRFTISRDNSRTTLYLQMNSLRAEDTAVYYCAKDLGWSDSYYYYYGMDVWGQGTTVTVSS
VL: DIQMTQFPSSLSASVGDRVTITCRASQGIRNDLGWYQQKPGKAPKRLIYAASRLHRGVPSRFSGSGSGTEFTLTISSLQPEDFATYYCLQHNSYPCSFGQGTKLEIKR

Kd [2]: 0.641 nM
B2: anti-IGF-IR antibody 2.14.3 (antibody, human IgG2, V domains shown)
VH: GPGLVKPSETLSLTCTVSGGSISNYYWSWIRQPAGKGLEWIGRIYTSGSPNYNPSLKSRVTMSVDTSKNQFSLKLNSVTAADTAVYYCAVTIFGVVIIFDYWGQGTLVTVSS
VL: SSLSASVGDRVTFTCRASQDIRRDLGWYQQKPGKAPKRLIYAASRLQSGVPSRFSGSGSGTEFTLTISSLQPEDFATYYCLQHNNYPRTFGQGTEVEIIR

Kd [2]: 7.37 nM
B3: anti-IGF-IR antibody 2.12.1 (antibody, V domains shown)
VH: QAQLVESGGGLVKPGGSLRLSCAASGFTFSDYYMSWIRQAPGKGLEWVSYISSSGSTRDYADSVKGRFTISRDNAKNSLYLQMNSLRAEDTAVYYCVRDGVETTFYYYYYGMDVWGQGTTVTVSS
VL: DIQMTQSPSSLSASVGDRVTFTCRASQDIRRDLGWYQQKPGKAPKRLIYAASRLQSGVPSRFSGSGSGTEFTLTISSLQPEDFATYYCLQHNNYPRTFGQGTEVEIIR

Kd [2]: 13 nM
B4: anti-IGF-IR antibody 4.17.3 (antibody, human IgG2, V domains shown)
VH: PGLVKPSETLSLTCTVSGGSISSYYWSWIRQPPGKGLEWIGYIYYSGSTNYNPSLKSRVTISVDTSKNQFSLKLSSVTAADTAVYYCARTYSSSFYYYGMDVWGQGTTVTVSS
VL: GDRVTITCRASQSISTFLNWYQQKPGKAPKLLIHVASSLQGGVPSRFSGSGSGTDFTLTISSLQPEDFATYYCQQSYNAPLTFGGGTKVEIK
